Values of other authors as cited in article PMC7225939.
Read-outs that look alike come from different tables or passages of the source. Each block holds one substance with its values, some of them ahead of it.

Key:
PCNA (Homo sapiens) = PCNA (Homo sapiens) (UniProt P12004); experiment: ITC
RecQ5 (Homo sapiens) = experiment: NMR
p21 (Homo sapiens) = experiment: ITC
DVC1 (Homo sapiens) = experiment: ITC
TRAIP (Homo sapiens) = experiment: ITC
[1] = biological target: p15 (PAF15) (Homo sapiens) (UniProt Q15004); experiment: ITC
p15 (PAF15) (Homo sapiens), sequence (Q15004 whole entry): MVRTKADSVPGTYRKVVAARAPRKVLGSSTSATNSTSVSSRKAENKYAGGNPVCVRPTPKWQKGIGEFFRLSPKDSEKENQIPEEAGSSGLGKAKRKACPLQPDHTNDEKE

PARG (Homo sapiens) = experiment: ITC
p12 (Homo sapiens) = experiment: ITC
UHRF2 (Homo sapiens) = experiment: ITC
p15PAF (Homo sapiens) = experiment: ITC
p15PAF (Homo sapiens), sequence (Q15004 50-77): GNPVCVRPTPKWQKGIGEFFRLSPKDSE

FEN1 (Homo sapiens) = experiment: ITC
ZRANB3 (Homo sapiens) [2] = experiment: ITC
Target sequence in this assay (Q5FWF4 511-532): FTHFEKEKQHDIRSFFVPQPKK

DNMT1 (Homo sapiens) = experiment: ITC
DNMT1 (Homo sapiens), sequence (P26358 161-180): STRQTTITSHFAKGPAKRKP

p68 (Homo sapiens) = experiment: ITC
Cdt2 (Homo sapiens) = experiment: FP
Cdt1 (Homo sapiens) = experiment: FP
pol η (Homo sapiens) = experiment: SPR
pol η (Homo sapiens), sequence (Q9Y253 other isoform, or with tags, fused parts or gaps): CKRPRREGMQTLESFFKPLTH

pol ι (Homo sapiens) = experiment: SPR
ZRANB3 (Homo sapiens) [3] = experiment: ITC; remark: listed apart in the source
Target sequence in this assay (Q5FWF4 1058-1079): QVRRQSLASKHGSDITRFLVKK

PCNA (Homo sapiens), sequence (P12004 whole entry): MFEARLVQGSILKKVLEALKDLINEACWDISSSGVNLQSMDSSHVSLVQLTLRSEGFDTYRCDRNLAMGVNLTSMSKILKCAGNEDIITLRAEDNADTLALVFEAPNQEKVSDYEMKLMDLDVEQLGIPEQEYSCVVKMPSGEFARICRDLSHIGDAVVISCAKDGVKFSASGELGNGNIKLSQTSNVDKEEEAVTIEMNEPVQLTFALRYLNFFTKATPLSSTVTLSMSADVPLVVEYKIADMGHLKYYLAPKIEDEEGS
PCNA, sequence (P12004 whole entry): as above
TRAIP (Homo sapiens), sequence (Q9BWF2 447-469): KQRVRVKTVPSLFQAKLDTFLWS
p21 (Homo sapiens), sequence (P38936 139-160): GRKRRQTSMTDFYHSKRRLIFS
RecQ5 (Homo sapiens), sequence (O94762 952-980): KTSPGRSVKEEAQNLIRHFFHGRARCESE
p15PAF (from UniProt Q15004), sequence (Q15004 whole entry): as the sequence (Q15004 whole entry) above

Substance: PCNA (from UniProt P12004)
- Kd (RecQ5 (Homo sapiens)): 210 µM
- Kd (p21 (Homo sapiens)): 0.08 µM
- Kd (DVC1 (Homo sapiens)): 15.6 µM
- Kd (TRAIP (Homo sapiens)): 30.7 µM
- Kd [1]: 1.1 µM
- Kd (PARG (Homo sapiens)): 3.3 µM
- Kd (p12 (Homo sapiens)): 38 µM
- Kd (UHRF2 (Homo sapiens)): 25.7 µM
- Kd (p15PAF (Homo sapiens)): 5.56 µM
- Kd (FEN1 (Homo sapiens)): 59.9 µM
- Kd (ZRANB3 (Homo sapiens) [2]): 4.8 µM
- Kd (DNMT1 (Homo sapiens)): 1 µM
- Kd (p68 (Homo sapiens)): 16 µM
- Kd (Cdt2 (Homo sapiens)): 0.057 µM
- Kd (Cdt1 (Homo sapiens)): 7.2 µM
- Kd (pol η (Homo sapiens)): 0.4 µM
- Kd (pol ι (Homo sapiens)): 0.39 µM
- Kd (ZRANB3 (Homo sapiens) [3]): 9.24 µM

Substance: ZRANB3
- Kd (PCNA (Homo sapiens)): 4.8 µM

Substance: p15PAF (from UniProt Q15004)
- Kd (PCNA (Homo sapiens)): 1.1 µM

Other lines, results leading:

- Kd (PCNA (Homo sapiens)): 59.9 µM
Substance: FEN1

- Kd (PCNA (Homo sapiens)): 5.56 µM
Substance: p15PAF

- Kd (PCNA (Homo sapiens)): 0.08 µM
Substance: p21

- Kd (PCNA (Homo sapiens)): 16 µM
Substance: p68 (DNA polymerase delta subunit)
